Test [1] deals with T1, human complement protein C6 (human, UniProt P13671 22-934).
T1 construct: also called human C6; C6 antigen
The test can be described thus: BLI (Octet), full kinetics, C6 0.16-10 nM, 1:1 fit. The method, then:
For two of the best performing antibodies, C601HFKC4 HuG4K (aka 3713) and C601HFKI HuG4K, a full kinetic experiment was run using seven concentrations of C6 (0.16-10 nM) and association and dissociation steps of 20 min. The datasets were processed by subtracting the no antigen controls and the data were fitted to a 1:1 binding model. Binding curves giving Req/Rₘₐₓ ratios>90% or showing poor fitting were excluded from analysis.
In general terms: BLI is a label-free optical method that tracks binding on a fibre tip over time.

In test [2] the target is T1, human complement protein C6. The test can be described thus: ELISA, C6-coated wells, large-scale purified antibody. For orientation: In an ELISA, binding on a coated surface is turned into a signal by an enzyme label.
Test [3] has the same target. The test can be described thus: C6-binding ELISA, A650 nm; sample 'human serun' (human serum, 28 days at 37 C). On the procedure: (§1) For the serum stability assessment, samples of the purified candidate antibodies are normally incubated in mouse, human and cynomolgus serum at 37 C for 28 days and then tested in an antigen-binding ELISA. Since the anti-C6 antibodies are expected to bind to both human and cynomolgus C6 but not mouse C6, we anticipated that incubating in human or cynomolgus sera would reduce ELISA binding due to occupation of the antibody binding sites by C6 protein from the sera. Therefore, the chimeric and humanized antibodies were tested with human and mouse sera and with human sera from which the C6 protein has been depleted. […]
(§2) Binding ELISAs used Nunc Maxisorp 384-well plates, wells coated with C6, C5b,6 complex or C5 (Complement Technology Inc, TX) and goat anti-human IgG (Fab specific) peroxidase secondary antibodies (Sigma-Aldrich, A0293) for detection. For the thermal stability assay, IgG supernatants were diluted to their EC₈₀ concentration, incubated at different temperatures for 10 min and C6 binding measured by ELISA with the binding signal plotted against temperature. Kinetics of C6 binding were measured by capturing antibodies from supernatant samples using Protein G biosensors and performing a 20 min association step with 2.5 nM C6 and a 20 min dissociation step using the Octet RED96. […]

The target is the same in test [4]. Description: ELISA, expression supernatant, anti-human kappa detection. The method, then: The chimeric molecules, MoC601 HuG4K and MoC601 HuG1KFab, were tested for C6 binding in the form of expression supernatants. In this experiment, the human molecules were detected with an HRP-conjugated goat anti-human kappa chain reagent, which gave relative low signals. However, the binding of both chimeric molecules to C6 was confirmed. The EC₅₀ value for MoC601 HuG4K (0.43 nM) was higher than that of the mouse antibody (0.07 nM), though this was lower than in previous experiments. A further experiment was performed to find a more suitable anti-human antibody detection reagent. MoC601 HuG4K from expression supernatant was detected with three different secondary antibodies. Both anti-human IgG Fc-specific and Fab-specific detection gave higher signals than the anti-kappa chain reagent but the Fc-specific detection yielded a very low EC₅₀ (0.03 nM).

Test [5] shares this target. The test can be described thus: C6-binding ELISA, A650 nm; sample 'PBS' (28 days at 37 C). The method, then:
For the serum stability assessment, samples of the purified candidate antibodies are normally incubated in mouse, human and cynomolgus serum at 37 C for 28 days and then tested in an antigen-binding ELISA. Since the anti-C6 antibodies are expected to bind to both human and cynomolgus C6 but not mouse C6, we anticipated that incubating in human or cynomolgus sera would reduce ELISA binding due to occupation of the antibody binding sites by C6 protein from the sera. Therefore, the chimeric and humanized antibodies were tested with human and mouse sera and with human sera from which the C6 protein has been depleted. The C6-binding ELISA was then used to compare the binding abilities of the C601 antibodies that had been incubated in the 3 different sera to antibody samples that were incubated in PBS at 37 C or kept at 4 C (non-incubated).
The Uncle instrument (Unchained Labs) was used to monitor unfolding via intrinsic fluorescence and aggregation by static light scattering across a temperature gradient to obtain melting temperatures (Tₘ). […] Isoelectric points were determined by capillary isoelectric focusing using a PA800+ (Beckman Coulter). […]

The target is the same in test [6]. The test can be described thus: BLI (Octet), antibody on Protein G biosensors, 1:1 fit, experiment 1.
The target is the same in test [7]. Description: BLI (Octet), antibody on Protein G biosensors, 1:1 fit, experiment 2.
Test [8] has the same target. The test can be described thus: C6-binding ELISA, A650 nm; sample 'mouse serum' (28 days at 37 C). The method, then:
as §1, §2

Test [9] shares this target. Description: C6-binding ELISA, A650 nm; sample 'C6-depleted human serum' (28 days at 37 C). The method, then: as §1, §2

T1 sequence (P13671 22-934 limits assumed): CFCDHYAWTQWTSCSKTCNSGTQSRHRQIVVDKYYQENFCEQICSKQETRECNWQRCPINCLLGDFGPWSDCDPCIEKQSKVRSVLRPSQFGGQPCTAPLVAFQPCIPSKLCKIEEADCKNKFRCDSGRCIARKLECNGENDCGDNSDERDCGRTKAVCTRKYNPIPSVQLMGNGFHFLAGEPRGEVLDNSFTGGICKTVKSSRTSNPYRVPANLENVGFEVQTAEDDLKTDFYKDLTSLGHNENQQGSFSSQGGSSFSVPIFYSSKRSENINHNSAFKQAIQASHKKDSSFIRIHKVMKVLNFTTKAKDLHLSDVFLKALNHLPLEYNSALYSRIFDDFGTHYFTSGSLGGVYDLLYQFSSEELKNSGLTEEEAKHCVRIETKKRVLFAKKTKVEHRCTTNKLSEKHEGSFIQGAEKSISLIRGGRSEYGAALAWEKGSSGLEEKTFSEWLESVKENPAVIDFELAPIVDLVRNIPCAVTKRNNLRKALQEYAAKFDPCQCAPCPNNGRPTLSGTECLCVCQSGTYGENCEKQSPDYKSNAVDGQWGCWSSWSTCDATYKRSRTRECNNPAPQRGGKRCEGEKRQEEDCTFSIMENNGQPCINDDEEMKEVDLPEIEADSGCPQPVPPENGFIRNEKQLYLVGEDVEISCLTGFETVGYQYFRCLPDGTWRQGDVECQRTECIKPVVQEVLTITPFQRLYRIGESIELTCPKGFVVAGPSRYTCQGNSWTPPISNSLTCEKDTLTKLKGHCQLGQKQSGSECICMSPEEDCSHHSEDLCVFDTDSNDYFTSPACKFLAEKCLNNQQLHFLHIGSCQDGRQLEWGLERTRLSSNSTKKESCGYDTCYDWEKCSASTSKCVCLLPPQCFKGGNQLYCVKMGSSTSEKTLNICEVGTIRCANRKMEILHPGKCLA

B1: C601HFKC4 HuG4K (antibody, human IgG4 S228P, kappa)
heavy: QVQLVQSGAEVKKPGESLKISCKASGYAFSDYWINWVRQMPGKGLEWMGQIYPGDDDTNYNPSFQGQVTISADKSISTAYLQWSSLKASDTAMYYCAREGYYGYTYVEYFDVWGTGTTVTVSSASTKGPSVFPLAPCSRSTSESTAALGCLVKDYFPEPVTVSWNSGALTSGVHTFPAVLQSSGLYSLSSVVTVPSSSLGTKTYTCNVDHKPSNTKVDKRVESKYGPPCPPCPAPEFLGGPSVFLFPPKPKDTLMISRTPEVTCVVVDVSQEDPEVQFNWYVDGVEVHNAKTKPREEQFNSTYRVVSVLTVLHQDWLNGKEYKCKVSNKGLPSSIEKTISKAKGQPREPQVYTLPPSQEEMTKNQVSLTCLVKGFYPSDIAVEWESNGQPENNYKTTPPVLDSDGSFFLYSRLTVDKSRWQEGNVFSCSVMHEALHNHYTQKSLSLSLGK
light: QIVLTQSPATLSLSPGERATLSCRASSSVSYLHWYQQKPGQSPRLWIYDTSKRATGIPARFSGSGSGTDYTLTISSLEPEDFAVYYCQQWTSNPLTFGQGTKLEIKRTVAAPSVFIFPPSDEQLKSGTASVVCLLNNFYPREAKVQWKVDNALQSGNSQESVTEQDSKDSTYSLSSTLTLSKADYEKHKVYACEVTHQGLSSPVTKSFNRGEC
notes: also called 3713; clone 3713
In [1], B1 returned a Kd of 0.11 nM, a koff of 0.00013 s⁻¹ and a kon of 1.19e+06 M⁻¹ s⁻¹. The same molecule gave an EC50 in [2] of 0.19 nM. The molecule also yielded an EC50 in [3] of 0.19 nM.

B2: MoC601 HuG4K (chimeric C601 antibody) (antibody, human IgG4 S228P, kappa, V domains shown)
VH: QVQLQQSGAELVKPGASVKISCKASGYAFSDYWMNWVKQRPGKGLEWIGQIYPGDDDTNYNGKFKGKATLTADKSSSTAYMQLSSLTSEDSAVYFCAREGYYGYTYVEYFDVWGTGTTVTVSS
VL: QIVLTQSPAIMSVSPGEKVTLTCSASSSVSYMHWYQQKSGTSPKRWIYDTSKLASGVPARFSGSGSGTSYSLTISSMEAEDAATYYCQQWTSNPLTFGAGTKLELRR
notes: also called chimeric antibody; chimeric 1C9
For B2, the EC50 in test [4] came to 0.43 nM; in test [5] it was 0.19 nM; in test [8], 0.19 nM; in [9], 0.15 nM. In addition, the results for the Kd in [6] and in [7] were 0.36 nM and 0.35 nM, respectively. The koff is 0.00025 s⁻¹ in [6] and 0.00024 s⁻¹ in test [7]. Further, the kon in [6] and in test [7] was 690000 M⁻¹ s⁻¹ each time.

One may read the Kd as the free concentration of one partner at which half of the binding sites on the other are occupied at equilibrium, for simple one-to-one binding. What is called koff is the rate constant with which the complex falls apart. A lower koff goes with slow dissociation. Usually kon stands for a measure of how fast the partners come together. Read a high kon as faster complex formation. Usually EC50 stands for the midpoint of the concentration-response curve. Higher therefore signals a need for much substance.

(Values after patent US20260125455A1 (CLEVELAND CLINIC FOUNDATION, published 2026).)
